Source: PMC12104855

Biological target: T1, biotin-conjugated KIFC1 (residues 1-50)
T1 sequence (peptide, biotin on the N-terminus): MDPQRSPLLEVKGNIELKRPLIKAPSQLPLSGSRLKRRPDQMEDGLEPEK
Test: BLI

Binder	Kd [nM]	koff [s⁻¹]	kon [M⁻¹ s⁻¹]
6CD1-IMGT IgG (antibody, V domains shown) VH: EVQLQQSGAELVKPGASVKLSCTASGFNIKDTYIHWVKQRPEQGLEWIGRIDPANGNTKYDPKFQGKATITADTSSNTAYLQLSSLTSEDTAVYYCARGYGSRSAMDYWGQGTSVTVS VL: DIVLTQSPASLAVSLGQRATISCRASQSLFNSRTRKNYMLWYQQKPGQPPKLLIYLASNLESGVPARFSGSGSGTDFTLNIHPVEEEDAATYYCQHSRELPWTFGGGTKLEIK	9.31	0.000682	73100
6C407 IgG (antibody, V domains shown) VH: EVQLQQSGAELVKPGASVKLSCTASGFNIKDTYIHWVKQRPEQGLEWIGRIDPANGNTKYDPKFQGKATITADTSSNTAYLQLSSLTSEDTAVYYCARGYGSRSAMDYWGQGTSVTVS VL: DIVLTQSPASLAVSLGQRATISCRASKSVSTSGYSYMLWYQQKPGQPPKLLIYLASNLESGVPARFSGSGSGTDFTLNIHPVEEEDAATYYCQHSRELPWTFGGGTKLEIK	10.6	–	–
